Laboratory results taken from patent publication US20030148958A1 (PROCTER AND GAMBLE, published 2003).
Ends that are not written are not given here.

Experiments:
CRF2R = target: T1, CRF2R; assay: cell-based or functional assay
T1 sequence (Q13324 whole entry, species assumed, looked up): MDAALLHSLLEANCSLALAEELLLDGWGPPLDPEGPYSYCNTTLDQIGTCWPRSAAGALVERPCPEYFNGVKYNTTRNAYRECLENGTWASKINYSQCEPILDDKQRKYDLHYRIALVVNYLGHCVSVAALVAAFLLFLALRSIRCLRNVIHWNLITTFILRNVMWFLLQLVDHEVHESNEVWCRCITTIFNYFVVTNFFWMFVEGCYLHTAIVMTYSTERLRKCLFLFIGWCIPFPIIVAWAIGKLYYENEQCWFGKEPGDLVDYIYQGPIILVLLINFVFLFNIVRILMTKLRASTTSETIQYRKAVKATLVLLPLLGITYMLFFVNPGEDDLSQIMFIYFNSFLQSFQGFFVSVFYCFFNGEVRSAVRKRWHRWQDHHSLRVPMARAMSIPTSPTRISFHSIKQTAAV

CRF1R = assay: cell-based or functional assay
For CRF1R Emax % in this document: reference of the scale not given here.
For CRF2R Emax % in this document: reference of the scale not given here.

Binder | CRF2R EC50 (CRF2R) | CRF2R Emax % (CRF2R) | CRF1R EC50 (CRF1R) | CRF1R Emax % (CRF1R)
ZGPPISIDLPHQLLRKMIEIEKQEKEKQQAANNRLLLDTI (C-terminal amide) [SEQ ID NO 212] | 21.3 nM | 100% | 445 nM | 100%
ZGPPISIDLPYFLLRKMIEIEKQEKEKQQAANNRLLLDTI (C-terminal amide) [SEQ ID NO 220] | 4.1 nM | 98% | 63.6 nM | 81%
ZGPPISIDLPYYLLRKMIEIEKQEKEKQQAANNALLLATI (C-terminal amide) [SEQ ID NO 225] | 4.8 nM | 89% | 220 nM | 97%
ZGPPISIDLPFYLLRKMIEIEKQEKEKQQAANNALLLATI (C-terminal amide) [SEQ ID NO 231] | 5.9 nM | 100% | 94 nM | 100%
ZGPPISIDLPQYLLRKMIEIEKQEKEKQQAANNALLLATI (C-terminal amide) [SEQ ID NO 227] | 33.6 nM | 95% | 918 nM | 18%
ZGPPISIDLPFHLLRKMIEIEKQEKEKQQAANNALLLDTI (C-terminal amide) [SEQ ID NO 228] | 7.1 nM | 100% | 276 nM | 100%
ZGPPISIDLPFWLLRKMIEIEKQEKEKQQAANNRLLLDTI (C-terminal amide) [SEQ ID NO 217] | 4.7 nM | 95% | 94.7 nM | 100%
ZGPPISIDLPFYLLRKMIEIEKQEKEKQQAANNALLLDTI (C-terminal amide) [SEQ ID NO 230] | 8.1 nM | 100% | 219 nM | 100%
ZGPPISIDLPHFLLRKMIEIEKQEKEKQQAANNRLLLDTI (C-terminal amide) [SEQ ID NO 219] | 7.8 nM | 98% | 80.9 nM | 100%
ZGPPISIDLPFFLLRKMIEIEKQEKEKQQAANNRLLLDTI (C-terminal amide) [SEQ ID NO 223] | 3 nM | 92% | 48.1 nM | 81%
ZGPPISIDLPTYLLRKMIEIEKQEKEKQQAANNALLLDTI (C-terminal amide) [SEQ ID NO 232] | 45.3 nM | 100% | 1000 nM | 7%
ZGPPISIDLPQFLLRKMIEIEKQEKEKQQAANNRLLLDTI (C-terminal amide) [SEQ ID NO 221] | 8.5 nM | 100% | 236 nM | 100%
ZGPPISIDLPWWLLRKMIEIEKQEKEKQQAANNRLLLDTI (C-terminal amide) [SEQ ID NO 216] | 9.9 nM | 90% | 49.8 nM | 98%
ZGPPISIDLPQYLLRKMIEIEKQEKEKQQAANNALLLDTI (C-terminal amide) [SEQ ID NO 224] | 26.9 nM | 100% | 1000 nM | 27%
ZGPPISIDLPFHLLRKMIEIEKQEKEKQQAANNALLLATI (C-terminal amide) [SEQ ID NO 229] | 10.3 nM | 100% | 298 nM | 100%
ZGPPISIDLPQWLLRKMIEIEKQEKEKQQAANNRLLLDTI (C-terminal amide) [SEQ ID NO 213] | 22.3 nM | 99% | 1000 nM | 76%

Binder | CRF2R EC50 (CRF2R) | CRF2R Emax % (CRF2R) | CRF1R EC50 (CRF1R) | CRF1R Emax % (CRF1R)
ZGPPISIDLPTYLLRKMIEIEKQEKEKQQAANNALLLATI (C-terminal amide) [SEQ ID NO 233] | 46.1 nM | 95% | 1000 nM | 11%
ZGPPISIDLPLWLLRKMIEIEKQEKEKQQAANNRLLLDTI (C-terminal amide) [SEQ ID NO 218] | 4.8 nM | 96% | 98.4 nM | 100%
ZGPPISIDLPYWLLRKMIEIEKQEKEKQQAANNRLLLDTI (C-terminal amide) [SEQ ID NO 215] | 4 nM | 100% | 188 nM | 100%
ZGPPISIDLPAFLLRKMIEIEKQEKEKQQAANNRLLLDTI (C-terminal amide) [SEQ ID NO 222] | 9.4 nM | 100% | 384 nM | 95%
ZGPPISIDLPLELLRKMIEIEKQEKEKQQAANNALLLDTI (C-terminal amide) [SEQ ID NO 235] | 25.7 nM | 100% | 806 nM | 70%
ZGPPISIDLPYYLLRKMIEIEKQEKEKQQAANNALLLDTI (C-terminal amide) [SEQ ID NO 226] | 7.6 nM | 100% | 315 nM | 95%
DNPSLSIDVPLLLLRTLLELEKTQSQRERAEQNARIFARV-NH2 [SEQ ID NO 384] | 7.1 nM | 97.3% | 1000 nM | 70.3%
DNPSLSIDVPFFLLRTLLELEKTQSQRERAEQNARIFARV-NH2 [SEQ ID NO 386] | 8.7 nM | 96% | 1000 nM | 78.2%
IVLSLDVVIGLLQILLEQARARAAREQATTNARILARV-NH2 [SEQ ID NO 214] | 74.3 nM | 60% | 100 nM | 4%
ZGPPISIDVPLQLLRKVIEIEKQEKEKQQAANNARLLARI (C-terminal amide) [SEQ ID NO 381] | 12.7 nM | 99% | 1000 nM | 27%
ZGPPISIDVPFQLLRKVIEIEKQEKEKQQAANNARLLARI (C-terminal amide) [SEQ ID NO 383] | 9.31 nM | 96% | 1000 nM | 55%
ZGPPISIDVPFQLLRKVIEIEKQEKEKQQAANNARLLDTI (C-terminal amide) [SEQ ID NO 382] | 39.5 nM | 100% | 1000 nM | 8%
ZGPPISIDLPLELLRKMIEIEKQEKEKQQAANNALLLATI (C-terminal amide) [SEQ ID NO 234] | 20.6 nM | 100% | 434 nM | 96%
DNPSLSIDVPLYLLRTLLELEKTQSQRERAEQNARIFARV-NH2 [SEQ ID NO 387] | 17.9 nM | 100% | 1000 nM | 50.1%
DNPSLSIDVPLFLLRTLLELEKTQSQRERAEQNARIFARV-NH2 [SEQ ID NO 385] | 10.2 nM | 100% | 1000 nM | 46%
